In general, pKd refers to the Kd on a negative log10 scale, so that one unit is a factor of ten. A high value points to a low Kd.

1 substance from patent US20160159921A1 can be followed below.

pKd: −log10 of the molar value.

One test has as its target FcγRIIIa (F) variant (UniProt P08637). In words: SPR (ProteOn XPR36), antibody captured on immobilized HER-2, FcγR as analyte, 1:1 Langmuir fit.
In another test the target is FcγRIIb (UniProt P31994). Described as above.
UniProt P31994, sequence (P31994 43-217 limits assumed): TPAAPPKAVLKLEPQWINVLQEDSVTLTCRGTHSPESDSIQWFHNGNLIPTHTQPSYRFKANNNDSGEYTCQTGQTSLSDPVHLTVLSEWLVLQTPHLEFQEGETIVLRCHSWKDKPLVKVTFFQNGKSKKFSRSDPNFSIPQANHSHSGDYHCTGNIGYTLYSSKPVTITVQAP

UniProt P08637, sequence (P08637 17-208 limits assumed, change not shown): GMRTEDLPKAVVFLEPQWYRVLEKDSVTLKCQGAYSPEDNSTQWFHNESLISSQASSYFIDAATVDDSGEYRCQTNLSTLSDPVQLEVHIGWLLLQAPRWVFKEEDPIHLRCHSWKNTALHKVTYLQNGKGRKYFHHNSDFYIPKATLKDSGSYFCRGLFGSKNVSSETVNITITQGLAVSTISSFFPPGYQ

As for “Trastuzumab variant G237F/S298A/A330L/I332E (antibody)”, the pKd is 6.37 in the test with FcγRIIIa (F) variant and 5.12 in the test with FcγRIIb.
